Source: patent US20240059797A1 (GRITSTONE BIO, published 2024)
Positions count from the first letter of the chain named.

Experiments:
[1] = biological target: HLA-A*02:01_… (HLA-PEPTIDE target G7), recombinant biotinylated complex (human, enzymatically biotinylated (BirA)); assay: phage panning, scFv ELISA
Procedure: Phage library screening was carried out according to the overall screening design described above. Three to four rounds of bead-based panning were performed to identify scFv binders to each peptide-HLA complex. For each round of panning, an aliquot of starting phage was set aside for input titering and the remaining phage was depleted three times against Dynabead M-280 streptavidin beads (Life Technologies) followed by a depletion against Streptavidin beads pre-bound with 100 μmoles of pooled negative peptide-HLA complexes. For the first round of panning, 100 μmoles of peptide-HLA complex bound to streptavidin beads was incubated with depleted phage for 2 hours at room temperature with rotation. Three five-minute washes with 0.5% BSA in 1×PBST (PBS+0.05% Tween-20) followed by three five-minute washes with 0.5% BSA in 1×PBS were utilized to remove any unbound phage to the peptide-HLA complex bound beads. To elute the bound phage from the washed beads, 1 ml 0.1M TEA was added and incubated for 10 minutes at room temperature with rotation. The eluted phage was collected from the beads and neutralized with 0.5 ml 1M Tris-HCl pH 7.5. The neutralized phage was then used to infect log growth TG-1 cells (OD₆₀₀=0.5) and after an hour of infection at 37° C., cells were plated onto 2YT media with 100 μg/ml carbenicillin and 2% glucose (2YTCG) agar plates for output titer and bacterial growth for subsequent panning rounds.
96-well and/or 384-well streptavidin coated plates (Pierce) were coated with 2 μg/ml peptide-HLA complex in HLA buffer and incubated overnight at 4° C. Plates were washed three times between each step with PBST (PBS+0.05%). The antigen coated plates were blocked with 3% BSA in PBS (blocking buffer) for 1 hour at room temperature. After washing, scFv PPEs were added to the plates and incubated at room temperature for 1 hour. Following washing, mouse anti-v5 antibody (Invitrogen) in blocking buffer was added to detect scFv and incubated at room temperature for 1 hour. After washing, HRP-goat anti-mouse antibody (Jackson ImmunoResearch) was added and incubated at room temperature for 1 hour.

[2] = biological target: HLA-A*01:01_… (HLA-PEPTIDE target G10), recombinant biotinylated complex (human, enzymatically biotinylated (BirA)); assay: BLI, pHLA on sensor, Fab titrated, 1:1 model
Procedure: Binding affinity was assessed by bio-layer interferometry (BLI) using an Octet Qke (ForteBio). Briefly, biotinylated pHLA complexes in kinetics buffer were loaded onto streptavidin sensors for 300 seconds, at concentrations which gave the optimal nm shift response (approximately 0.6 nm) for each Fab at the highest concentration used. The ligand-loaded tips were subsequently equilibrated in the kinetics buffer for 120 seconds. The ligand-loaded biosensors were then dipped for 200 seconds in the Fab solution titrated into 2-fold dilutions. […] The dissociation step in the kinetics buffer was measured for 200 seconds. Data were analyzed using the ForteBio data analysis software using a 1:1 binding model.

[3] = biological target: T1, HLA-A*01:01_… (HLA-PEPTIDE target G2), recombinant biotinylated complex (human, enzymatically biotinylated (BirA)); assay: BLI (ForteBio Octet HTX), biotinylated G2-pHLA captured on streptavidin SAX biosensor, bispecific in solution, 1:2 Fit
T1 construct: also called G2-pHLA

[4] = biological target: T1, HLA-A*01:01_… (HLA-PEPTIDE target G2), …; assay: BLI (ForteBio Octet HTX), biotinylated G2-pHLA captured on streptavidin SAX biosensor, bispecific in solution, 1:1 Fit
Source text: (§1) The biosensors were then dipped in assay buffer for a baseline. […] The biosensors were finally dipped into wells containing assay buffer to measure the dissociation rate for another 50 seconds. Referencing was completed by having a biosensor with no immobilized ligand dipped into analyte. Kinetic data was processed with Octet™ software using a 1:1 kinetic model with errors within 10%, X² below 3, and R² above 0.9.

[5] = biological target: T1, HLA-A*01:01_… (HLA-PEPTIDE target G2), …; assay: BLI (ForteBio Octet HTX), biotinylated G2-pHLA captured on streptavidin SAX biosensor, bispecific in solution, 1:1 kinetic model
Procedure: (§2) The affinity of wildtype and DSB mutants were analyzed on the ForteBio Octet HTX in 96-channel mode with biolayer interferometry (BLI) detection. […] The biosensors were then dipped in assay buffer for a baseline. […] The biosensors were finally dipped into wells containing assay buffer to measure the dissociation rate for another 50 seconds. Referencing was completed by having a biosensor with no immobilized ligand dipped into analyte. Kinetic data was processed with Octet™ software using a 1:1 kinetic model with errors within 10%, X² below 3, and R² above 0.9.

[6] = biological target: T2, HLA-A*01:01_… (G2) presented on cells (human); assay: flow cytometry, A375 cells expressing the G2 peptide
T2 construct: whole, on cells; K562 transduced with HLA-A*01:01 and pulsed with peptide, or A375 transduced with a 10x peptide cassette; also called G2 on K562 or A375 cells
Procedure: Tumor cells engineered to express target peptide were harvested, washed in PBS, and stained with eBioscience Fixable Viability Dye eFluor 450 for 15 minutes at room temperature. Following another wash in PBS+1-2% FBS, cells were resuspended with the indicated molecules at varying concentrations and incubated for 1 hour at 4° C. After another wash, PE-conjugated goat anti-human IgG secondary antibody (Jackson ImmunoResearch) was added at 1:100 to 1:200 for 30 minutes at 4° C. After washing in PBS+1-2% FBS, cells were resuspended in PBS+1-2% FBS and analyzed by flow cytometry. Flow cytometric analysis was performed on the Attune NxT Flow Cytometer (ThermoFisher) using the Attune NxT Software. Data was analyzed using FlowJo.

[7] = biological target: T1, HLA-A*01:01_… (HLA-PEPTIDE target G2), …; assay: BLI (Octet HTX), biotinylated pHLA on SAX sensor, 1:1 model
Procedure: as §2

[8] = biological target: T3, HLA-B*35:01_… (HLA-PEPTIDE target G5), recombinant biotinylated complex (human, enzymatically biotinylated (BirA)); assay: BLI (ForteBio Octet HTX), biotinylated G5-pHLA captured on streptavidin SAX biosensor, bispecific in solution, 1:1 Fit
T3 construct: also called G5-pHLA
Source text: as §1

[9] = biological target: T3, HLA-B*35:01_… (HLA-PEPTIDE target G5), …; assay: BLI (ForteBio Octet HTX), biotinylated G5-pHLA captured on streptavidin SAX biosensor, bispecific in solution, 1:2 Fit
[10] = biological target: T4, HLA-B*35:01_… (G5) presented on cells (human); assay: flow cytometry on LN229 cells engineered to express the G5 peptide (LN229-G5-9mer), PE anti-human IgG secondary
T4 construct: whole, on cells; also called G5 on K562 or LN229 cells
Procedure: Cells were harvested, washed in PBS, and stained with eBioscience Fixable Viability Dye eFluor 450 for 15 minutes at room temperature. Following another wash in PBS+2% FBS, cells were resuspended with bispecifics at varying concentrations. Cells were incubated with bispecifics for 1 hour at 4° C. After another wash, PE-conjugated goat anti-human IgG secondary antibody (Jackson ImmunoResearch) was added at 1:100. After incubating at 4° C. for 45 minutes and washing in PBS+2% FBS, cells were resuspended in PBS+2% FBS and analyzed by flow cytometry. Flow cytometric analysis was performed on the Attune NxT Flow Cytometer (ThermoFisher) using the Attune NxT Software. Data was analyzed using FlowJo.

B1: G7(1C06) scFv (scFv, V domains shown)
VH: QVQLVQSGAEVKKPGASVKVSCKASGGTFSNYGISWVRQAPGQGLEWMGIINPGGSTSYAQKFQGRVTMTRDTSTSTVYMELSSLRSEDTAVYYCARDGYDFWSGYTSDDYWGQGTLVTVSS
VL: EIVMTQSPATLSVSPGERATLSCRASQSVSSSNLAWYQQKPGQAPRLLIYGASTRATGIPARFSGSGSGTEFTLTISSLQSEDFAVYYCHHYGRSHTFGQGTKVEIK
[1]
  binding result: binds

B2: G10(4E07) Fab (Fab, V domains shown)
VH: QVQLVQSGAEVKKPGSSVKVSCKASGYTFTGYYMHWVRQAPGQGLEWMGRISPSDGSTTYAPKFQGRVTITADESTSTAYMELSSLRSEDTAVYYCARDMGDAFDIWGQGTTVTVSS
VL: not shown
notes: Fab
[2]
  Kd: 428 nM
  koff: 0.111 s⁻¹
  kon: 477000 M⁻¹ s⁻¹

B3: G7(3A09) scFv (scFv, V domains shown)
VH: QVQLVQSGAEVKKPGSSVKVSCKASGDTFNTYALSWVRQAPGQGLEWMGWMNPNSGNAGYAQKFQGRVTITADESTSTAYMELSSLRSEDTAVYYCARLWFGELHYYYYYGMDVWGQGTMVTVSS
VL: not shown
[1]
  binding result: binds

B4: G7(1G10) scFv (scFv, V domains shown)
VH: EVQLLESGGGLVQPGGSLRLSCAASGFTFSSYAMHWVRQAPGKGLEWVSGISGSGGSTYYADSVKGRFTISRDNSKNTLYLQMNSLRAEDTAVYYCASDYGDYRGQGTLVTVSS
VL: DIQMTQSPSSLSASVGDRVTITCRASQDIRNDLGWYQQKPGKAPKLLIYAASSLQSGVPSRFSGSGSGTDFTLTISSLQPEDFATYYCQQANAFPPTFGQGTKVEIK
[1]
  binding result: binds

B5: G7(1F08) scFv (scFv, V domains shown)
VH: EVQLLQSGGGLVQPGGSLRLSCAASGFTFSSSWMHWVRQAPGKGLEWVSFISTSSGYIYYADSVKGRFTISRDNSKNTLYLQMNSLRAEDTAVYYCAKDLATVGEPYYYYGMDVWGQGTTVTVSS
VL: B4 VL with R24Q, R30S, D32Y, G34N, A50S, S53N, Q55R, A91G, A93T, P96L
[1]
  binding result: binds

B6: G10(1B07) Fab (Fab, V domains shown)
VH: QVQLVQSGAEVKKPGASVKVSCKASGYTFTSYYMHWVRQAPGQGLEWMGIIHPGGGTTSYAQKFQGRVTMTRDTSTSTVYMELSSLRSEDTAVYYCARDKVYGDGFDPWGQGTLVTVSS
VL: B4 VL with D28S, R30S, N31R, D32W, G34A, Y49F, A50D, S53R, N92E, P96Y
notes: Fab
[2]
  Kd: 37.5 nM
  koff: 0.00615 s⁻¹
  kon: 165000 M⁻¹ s⁻¹

B7: 4-G2(1H11)-10AAL hOKT3a (bispecific antibody)
chain: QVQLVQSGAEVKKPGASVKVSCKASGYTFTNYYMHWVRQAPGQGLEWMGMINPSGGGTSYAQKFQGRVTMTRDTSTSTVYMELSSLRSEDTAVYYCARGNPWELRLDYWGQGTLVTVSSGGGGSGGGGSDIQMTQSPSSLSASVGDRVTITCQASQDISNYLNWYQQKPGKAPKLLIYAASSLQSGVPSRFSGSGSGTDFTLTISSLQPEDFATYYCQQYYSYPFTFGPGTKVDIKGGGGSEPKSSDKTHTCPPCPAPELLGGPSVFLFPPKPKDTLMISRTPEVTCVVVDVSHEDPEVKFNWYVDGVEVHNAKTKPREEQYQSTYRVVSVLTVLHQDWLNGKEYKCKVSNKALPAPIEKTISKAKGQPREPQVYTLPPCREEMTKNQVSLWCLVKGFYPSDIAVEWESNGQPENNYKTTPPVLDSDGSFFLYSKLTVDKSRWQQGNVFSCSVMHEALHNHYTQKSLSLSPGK
heavy: QVQLVQSGAEVKKPGASVKVSCKASGYTFTNYYMHWVRQAPGQGLEWMGMINPSGGGTSYAQKFQGRVTMTRDTSTSTVYMELSSLRSEDTAVYYCARGNPWELRLDYWGQGTLVTVSSGGGGSGGGGSDIQMTQSPSSLSASVGDRVTITCQASQDISNYLNWYQQKPGKAPKLLIYAASSLQSGVPSRFSGSGSGTDFTLTISSLQPEDFATYYCQQYYSYPFTFGPGTKVDIKGGGGSGGGGSQVQLVQSGAEVKKPGASVKVSCKASGYTFTRYTMHWVRQAPGQGLEWMGYINPSRGYTNYNQKFKDRVTLTTDKSSSTAYMELSSLRSEDTAVYYCARYYDDHYSLDYWGQGTLVTVSSASTKGPSVFPLAPSSKSTSGGTAALGCLVKDYFPEPVTVSWNSGALTSGVHTFPAVLQSSGLYSLSSVVTVPSSSLGTQTYICNVNHKPSNTKVDKRVEPKSCDKTHTCPPCPAPELLGGPSVFLFPPKPKDTLMISRTPEVTCVVVDVSHEDPEVKFNWYVDGVEVHNAKTKPREEQYQSTYRVVSVLTVLHQDWLNGKEYKCKVSNKALPAPIEKTISKAKGQPREPQVCTLPPSREEMTKNQVSLSCAVKGFYPSDIAVEWESNGQPENNYKTTPPVLDSDGSFFLVSKLTVDKSRWQQGNVFSCSVMHEALHNRFTQKSLSLSPGK
light: DIQMTQSPSSLSASVGDRVTITCSASSSVSYMNWYQQKPGKAPKRLIYDTSKLASGVPSRFSGSGSGTDFTLTISSLQPEDFATYYCQQWSSNPFTFGQGTKLEIKRTVAAPSVFIFPPSDEQLKSGTASVVCLLNNFYPREAKVQWKVDNALQSGNSQESVTEQDSKDSTYSLSSTLTLSKADYEKHKVYACEVTHQGLSSPVTKSFNRGEC
notes: format 4 diabody; also called G2(1H11)-hOKT3a Format 4 with shortened linkers; DAB
[3]
  Kd: 301 nM
  koff: 0.0746 s⁻¹
  kon: 248000 M⁻¹ s⁻¹
[4]
  Kd: 6.35 nM
  koff: 0.00608 s⁻¹
  kon: 958000 M⁻¹ s⁻¹

B8: 4-hOKT3-G2(1H11) (bispecific antibody, human IgG1, kappa, N297Q)
chain: not shown
heavy: QVQLVQSGAEVKKPGASVKVSCKASGYTFTNYYMHWVRQAPGQGLEWMGMINPSGGGTSYAQKFQGRVTMTRDTSTSTVYMELSSLRSEDTAVYYCARGNPWELRLDYWGQGTLVTVSSGGGGSGGGGSGGGGSGGGGSDIQMTQSPSSLSASVGDRVTITCQASQDISNYLNWYQQKPGKAPKLLIYAASSLQSGVPSRFSGSGSGTDFTLTISSLQPEDFATYYCQQYYSYPFTFGPGTKVDIKGGGGSGGGGSQVQLVQSGAEVKKPGASVKVSCKASGYTFTRYTMHWVRQAPGQGLEWMGYINPSRGYTNYNQKFKDRVTLTTDKSSSTAYMELSSLRSEDTAVYYCARYYDDHYSLDYWGQGTLVTVSSASTKGPSVFPLAPSSKSTSGGTAALGCLVKDYFPEPVTVSWNSGALTSGVHTFPAVLQSSGLYSLSSVVTVPSSSLGTQTYICNVNHKPSNTKVDKRVEPKSCDKTHTCPPCPAPELLGGPSVFLFPPKPKDTLMISRTPEVTCVVVDVSHEDPEVKFNWYVDGVEVHNAKTKPREEQYQSTYRVVSVLTVLHQDWLNGKEYKCKVSNKALPAPIEKTISKAKGQPREPQVCTLPPSREEMTKNQVSLSCAVKGFYPSDIAVEWESNGQPENNYKTTPPVLDSDGSFFLVSKLTVDKSRWQQGNVFSCSVMHEALHNRFTQKSLSLSPGK
light: B7 light
notes: format 4; its Fc may differ; also called 4-G2(1H11)-hOKT3; Format 4 G2(1H11) without the DSB
[3]
  Kd: 1640 nM
  koff: 0.324 s⁻¹
  kon: 198000 M⁻¹ s⁻¹
[5]
  koff: 0.00397 s⁻¹
[6]
  EC50: 9.8 nM
[7]
  Kd: 18 nM
[4]
  Kd: 30.3 nM
  koff: 0.0277 s⁻¹
  kon: 913000 M⁻¹ s⁻¹

B9: 4-G5(1C12)_10AAL hOKT3a (bispecific antibody)
chain: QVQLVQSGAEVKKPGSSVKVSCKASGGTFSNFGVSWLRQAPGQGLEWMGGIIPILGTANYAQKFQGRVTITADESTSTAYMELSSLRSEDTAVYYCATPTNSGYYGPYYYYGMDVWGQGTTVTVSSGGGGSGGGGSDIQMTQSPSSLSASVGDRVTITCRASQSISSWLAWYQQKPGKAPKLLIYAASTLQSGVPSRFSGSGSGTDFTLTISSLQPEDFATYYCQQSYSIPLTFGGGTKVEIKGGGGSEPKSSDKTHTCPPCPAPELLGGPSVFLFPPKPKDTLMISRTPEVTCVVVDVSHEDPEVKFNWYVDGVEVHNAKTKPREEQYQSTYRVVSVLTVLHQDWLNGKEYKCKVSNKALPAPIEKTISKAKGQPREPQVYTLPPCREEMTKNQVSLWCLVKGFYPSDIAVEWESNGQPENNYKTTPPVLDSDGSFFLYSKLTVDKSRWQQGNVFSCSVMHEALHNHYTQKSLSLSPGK
heavy: QVQLVQSGAEVKKPGSSVKVSCKASGGTFSNFGVSWLRQAPGQGLEWMGGIIPILGTANYAQKFQGRVTITADESTSTAYMELSSLRSEDTAVYYCATPTNSGYYGPYYYYGMDVWGQGTTVTVSSGGGGSGGGGSDIQMTQSPSSLSASVGDRVTITCRASQSISSWLAWYQQKPGKAPKLLIYAASTLQSGVPSRFSGSGSGTDFTLTISSLQPEDFATYYCQQSYSIPLTFGGGTKVEIKGGGGSGGGGSQVQLVQSGAEVKKPGASVKVSCKASGYTFTRYTMHWVRQAPGQGLEWMGYINPSRGYTNYNQKFKDRVTLTTDKSSSTAYMELSSLRSEDTAVYYCARYYDDHYSLDYWGQGTLVTVSSASTKGPSVFPLAPSSKSTSGGTAALGCLVKDYFPEPVTVSWNSGALTSGVHTFPAVLQSSGLYSLSSVVTVPSSSLGTQTYICNVNHKPSNTKVDKRVEPKSCDKTHTCPPCPAPELLGGPSVFLFPPKPKDTLMISRTPEVTCVVVDVSHEDPEVKFNWYVDGVEVHNAKTKPREEQYQSTYRVVSVLTVLHQDWLNGKEYKCKVSNKALPAPIEKTISKAKGQPREPQVCTLPPSREEMTKNQVSLSCAVKGFYPSDIAVEWESNGQPENNYKTTPPVLDSDGSFFLVSKLTVDKSRWQQGNVFSCSVMHEALHNRFTQKSLSLSPGK
light: B7 light
notes: format 4 diabody; also called G5(1C12)-hOKT3a Format 4 with shortened linkers
[8]
  Kd: 2.2 nM
  koff: 0.00279 s⁻¹
  kon: 1.27e+06 M⁻¹ s⁻¹
[9]
  Kd: 16.1 nM
  koff: 0.00652 s⁻¹
  kon: 405000 M⁻¹ s⁻¹
[10]
  EC50 (read off the curve): ~1 nM

B10: 4-hOKT3-G2(1H11) with engineered H44/L100 disulfide bond (bispecific antibody, human IgG1, kappa, N297Q)
chain: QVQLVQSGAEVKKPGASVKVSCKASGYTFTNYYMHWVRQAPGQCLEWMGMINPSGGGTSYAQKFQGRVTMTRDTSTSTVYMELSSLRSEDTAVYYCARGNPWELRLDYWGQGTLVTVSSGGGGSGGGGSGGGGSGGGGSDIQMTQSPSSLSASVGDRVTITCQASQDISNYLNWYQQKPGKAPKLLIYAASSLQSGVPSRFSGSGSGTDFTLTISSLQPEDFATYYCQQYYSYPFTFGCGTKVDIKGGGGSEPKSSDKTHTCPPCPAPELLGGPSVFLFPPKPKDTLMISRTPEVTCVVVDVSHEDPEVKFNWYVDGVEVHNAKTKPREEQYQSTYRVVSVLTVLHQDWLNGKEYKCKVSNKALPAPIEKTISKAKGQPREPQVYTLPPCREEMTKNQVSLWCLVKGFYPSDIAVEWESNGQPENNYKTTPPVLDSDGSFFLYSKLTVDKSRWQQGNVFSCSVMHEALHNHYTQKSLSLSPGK
heavy: B8 heavy with G44C, P239C
light: B7 light
notes: also called G2(1H11)-hOKT3_DSBH44/L100 Format 4; G2 Format 4 with the DSB
[5]
  koff: 0.025 s⁻¹
[6]
  EC50: 1750 nM
[7]
  Kd: 35.1 nM

B11: G7(1B04) scFv (scFv, V domains shown)
VH: QVQLVQSGAEVKKPGASVKVSCKASGYTFSNYYIHWVRQAPGQGLEWMGWLNPNSGNTGYAQRFQGRVTMTRDTSTSTVYMELSSLRSEDTAVYYCARDLMTTVVTPGDYGMDVWGQGTTVTVSS
VL: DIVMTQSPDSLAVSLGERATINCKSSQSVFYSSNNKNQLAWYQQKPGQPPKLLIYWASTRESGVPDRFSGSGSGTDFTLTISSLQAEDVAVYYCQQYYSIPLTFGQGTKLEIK
[1]
  binding result: binds
